Measured values from PMC4260879.

How the values were obtained:
UG37 gp140 (HIV-1) [1] = test: ELISA; gp140 coated at 2 ug/ml (2 hr, 37 C); CD4-IgG2 titrated, 2 hr at RT; detected with anti-human-IgG-HRP; one-site binding fit, EC50 at 50% of maximum binding
UG37 gp140 (HIV-1) [2] = test: SEC; Superdex200 26/60; trimer peak after Talon, re-run after GNA-lectin capture

## CD4-IgG2 (from UniProt P01730 26-458) (Fc fusion)
UG37 gp140 (HIV-1) [1]
  EC50: 0.18 nM

## UG37 gp140 (domain or fragment)
UG37 gp140 (HIV-1) [2]
  stoichiometry N: 3
